Results published in patent US20240132578A1.

Key:
[1] = biological target: HIV-1 envelope glycoprotein (Env) of isolate MG RM-A-003, subtype A (HIV-1); test: cell-based or functional assay
[2] = biological target: HIV-1 envelope glycoprotein (Env) of isolate 92WR021, subtype A (HIV-1); test: cell-based or functional assay
[3] = biological target: WT JR-FL gp120 (HIV-1 JR-FL); test: ELISA, antigen-coated wells, mAb titrated; EC50 by nonlinear regression
[4] = biological target: HIV-1 Env of isolate MGRM-A-012 (clade A pseudovirus) (HIV-1); test: cell-based or functional assay
[5] = biological target: HIV-1 Env of isolate SF162 (HIV-1) (UniProt P19550); test: cell-based or functional assay
[6] = biological target: HIV-1 Env of isolate 94KE105 (listed under clade A; pseudovirus) (HIV-1); test: cell-based or functional assay
[7] = biological target: HIV-1 Env of isolate MGRM-D-005 (clade D pseudovirus) (HIV-1); test: cell-based or functional assay
[8] = biological target: HIV-1 Env of pseudovirus MGRM-G-017 (HIV-1); test: cell-based or functional assay
[9] = biological target: HIV-1 92RW020 Env (HIV-1); test: cell-based or functional assay
[10] = biological target: HIV-1 JR-CSF Env I420A (HIV-1 (isolate JR-CSF)) (UniProt P20871); test: cell-based or functional assay
[11] = biological target: HIV-1 Env of isolate MGRM-AE-004 (pseudovirus) (HIV-1); test: cell-based or functional assay
[12] = biological target: HIV-1 Env of isolate MGRM-AE-005 (pseudovirus) (HIV-1); test: cell-based or functional assay
[13] = biological target: HIV-1 Env of isolate MGRM-AE-006 (pseudovirus) (HIV-1); test: cell-based or functional assay
[14] = biological target: HIV-1 Env of isolate MGRM-A-014 (subtype A) (HIV-1); test: cell-based or functional assay
[15] = biological target: HIV-1 Env of isolate MGRM-Chronic-B-024 (HIV-1); test: cell-based or functional assay
[16] = biological target: HIV-1 Env of isolate 92UG037 (pseudovirus) (HIV-1); test: cell-based or functional assay
[17] = biological target: HIV-1 Env of isolate JRCSF (HIV-1) (UniProt P20871); test: cell-based or functional assay
[18] = biological target: HIV-1 Env of isolate VLGCB3 (HIV-1); test: cell-based or functional assay
[19] = biological target: HIV-1 Env of isolate 97ZA012 (HIV-1); test: cell-based or functional assay
[20] = biological target: HIV-1 Env of isolate 93WR029 (pseudovirus) (HIV-1); test: cell-based or functional assay
[21] = biological target: HIV-1 Env of isolate SC422661.8 (HIV-1); test: cell-based or functional assay
[22] = biological target: HIV-1 Env of isolate THR0.18 (HIV-1); test: cell-based or functional assay
[23] = biological target: HIV-1 Env of isolate MGRM-A-003 (pseudovirus) (HIV-1); test: cell-based or functional assay
[24] = biological target: HIV-1 Env of isolate MGRM-Chronic-B-017 (HIV-1); test: cell-based or functional assay
[25] = biological target: HIV-1 Env of isolate 93UG077 (pseudovirus) (HIV-1); test: cell-based or functional assay
[26] = biological target: HIV-1 Env of isolate MGRM-Chronic-B-023 (HIV-1); test: cell-based or functional assay
[27] = biological target: HIV-1 Env of isolate 92WR024 (pseudovirus) (HIV-1); test: cell-based or functional assay
[28] = biological target: HIV-1 Env of isolate 93IN905 (HIV-1); test: cell-based or functional assay
[29] = biological target: HIV-1 Env of isolate 94UG103 (pseudovirus) (HIV-1); test: cell-based or functional assay
[30] = biological target: HIV-1 Env of isolate 92WR021 (pseudovirus) (HIV-1); test: cell-based or functional assay
[31] = biological target: HIV-1 Env of isolate 92WR020 (pseudovirus) (HIV-1); test: cell-based or functional assay
[32] = biological target: HIV-1 Env of isolate TRO.11 (HIV-1); test: cell-based or functional assay
[33] = biological target: HIV-1 Env of isolate 93MW959 (HIV-1); test: cell-based or functional assay
[34] = biological target: HIV-1 Env of isolate 92UG031 (pseudovirus) (HIV-1); test: cell-based or functional assay
[35] = biological target: HIV-1 Env of isolate MGRM-AG-011 (subtype AG) (HIV-1); test: cell-based or functional assay
[36] = biological target: HIV-1 Env of isolate MGRM-Chronic-B-011 (HIV-1); test: cell-based or functional assay
[37] = biological target: HIV-1 Env of isolate NL43 (HIV-1); test: cell-based or functional assay
[38] = biological target: HIV-1 Env of isolate 92WR026 (pseudovirus) (HIV-1); test: cell-based or functional assay
[39] = biological target: HIV-1 Env of isolate MGRM-Chronic-B-020 (HIV-1); test: cell-based or functional assay
[40] = biological target: HIV-1 Env of isolate TRJ04551.58 (HIV-1); test: cell-based or functional assay
[41] = biological target: HIV-1 Env of isolate MGRM-Chronic-B-018 (HIV-1); test: cell-based or functional assay
[42] = biological target: HIV-1 Env of isolate MGRM-Chronic-B-012 (HIV-1); test: cell-based or functional assay
[43] = biological target: HIV-1 Env of isolate QH0692.42 (HIV-1); test: cell-based or functional assay
[44] = biological target: HIV-1 Env of isolate 98IN022 (HIV-1); test: cell-based or functional assay
[45] = biological target: HIV-1 Env of isolate MGRM-Chronic-B-010 (HIV-1); test: cell-based or functional assay

4838_L06 (PGT-121) (antibody)
IC50, pseudovirus neutralization [1]: 0.435 µg/mL | IC50, pseudovirus neutralization [2]: 0.009 µg/mL | EC50 [3]: 0.2 µg/mL

1495_C14 (PGC14) (antibody)
IC50 (µg/ml), pseudovirus neutralization [4]: > 50 µg/mL | IC50 (µg/ml), pseudovirus neutralization [5]: < 0.0025 µg/mL | IC50 (µg/ml), pseudovirus neutralization [6]: > 50 µg/mL | IC50, pseudovirus neutralization [7]: > 50 µg/mL | IC50 (µg/ml), pseudovirus neutralization [8]: > 50 µg/mL

2F5 (antibody)
IC50 (µg/ml), pseudovirus neutralization [4]: 2.36 µg/mL | IC50 (µg/ml), pseudovirus neutralization [5]: 2.52 µg/mL | IC50 (µg/ml), pseudovirus neutralization [6]: > 50 µg/mL | IC50, pseudovirus neutralization [7]: > 50 µg/mL | IC50 (µg/ml), pseudovirus neutralization [8]: 0.6 µg/mL

b12 (antibody)
IC50 (µg/ml), pseudovirus neutralization [4]: > 50 µg/mL | IC50 (µg/ml), pseudovirus neutralization [5]: 0.02 µg/mL | IC50 (µg/ml), pseudovirus neutralization [6]: > 50 µg/mL | IC50, pseudovirus neutralization [7]: > 50 µg/mL | IC50 (µg/ml), pseudovirus neutralization [8]: > 50 µg/mL

5141_B17 (PGT-126) (antibody)
IC50, pseudovirus neutralization [9]: 0.0046 µg/mL | Fold IC50 increase relative to wild-type (pseudovirus neutralization) [10]: 0.6 fold | IC50 (µg/mL), pseudovirus neutralization [11]: > 50 µg/mL | IC50 (µg/mL), pseudovirus neutralization [12]: 0.324 µg/mL | IC50 (µg/mL), pseudovirus neutralization [13]: 17.3 µg/mL | IC50, pseudovirus neutralization [1]: > 50 µg/mL | IC50, pseudovirus neutralization [2]: 0.006 µg/mL | EC50 [3]: 0.1 µg/mL

4877_D15 (PGT-122) (antibody)
IC50, pseudovirus neutralization [9]: 0.0072 µg/mL | IC50 (µg/mL), pseudovirus neutralization [11]: > 50 µg/mL | IC50 (µg/mL), pseudovirus neutralization [12]: > 50 µg/mL | IC50 (µg/mL), pseudovirus neutralization [13]: > 50 µg/mL | IC50, pseudovirus neutralization [1]: 3.79 µg/mL | IC50, pseudovirus neutralization [2]: 0.021 µg/mL | EC50 [3]: 0.3 µg/mL

5345_I01 (PGT-137) (antibody)
IC50, pseudovirus neutralization [14]: 18.6 µg/mL | IC50 (µg/mL), pseudovirus neutralization [15]: > 50 µg/mL | IC50 (µg/mL), pseudovirus neutralization [16]: > 50 µg/mL | IC50 (µg/mL), pseudovirus neutralization [17]: > 50 µg/mL | IC50 (µg/mL), pseudovirus neutralization [18]: 3.36 µg/mL | IC50 (µg/mL), pseudovirus neutralization [19]: > 50 µg/mL | IC50 (µg/mL), pseudovirus neutralization [5]: 3.41 µg/mL | IC50 (µg/mL), pseudovirus neutralization [20]: > 50 µg/mL | IC50 (µg/mL), pseudovirus neutralization [21]: > 50 µg/mL | IC50 (µg/mL), pseudovirus neutralization [22]: > 50 µg/mL | IC50 (µg/mL), pseudovirus neutralization [23]: > 50 µg/mL | IC50 (µg/mL), pseudovirus neutralization [24]: > 50 µg/mL | IC50 (µg/mL), pseudovirus neutralization [25]: > 50 µg/mL | IC50 (µg/mL), pseudovirus neutralization [26]: > 50 µg/mL | IC50 (µg/mL), pseudovirus neutralization [27]: > 50 µg/mL | IC50 (µg/mL), pseudovirus neutralization [28]: 0.042 µg/mL | IC50 (µg/mL), pseudovirus neutralization [29]: > 50 µg/mL | IC50 (µg/mL), pseudovirus neutralization [30]: 3.52 µg/mL | IC50 (µg/mL), pseudovirus neutralization [31]: 0.005 µg/mL | IC50 (µg/mL), pseudovirus neutralization [32]: 9.35 µg/mL | IC50 (µg/mL), pseudovirus neutralization [33]: > 50 µg/mL | IC50 (µg/mL), pseudovirus neutralization [34]: > 50 µg/mL | IC50, pseudovirus neutralization [35]: > 50 µg/mL | IC50 (µg/mL), pseudovirus neutralization [36]: > 50 µg/mL | IC50 (µg/mL), pseudovirus neutralization [37]: 17.4 µg/mL | IC50 (µg/mL), pseudovirus neutralization [38]: 0.092 µg/mL | IC50 (µg/mL), pseudovirus neutralization [39]: 32.9 µg/mL | IC50 (µg/mL), pseudovirus neutralization [40]: > 50 µg/mL | IC50 (µg/mL), pseudovirus neutralization [41]: > 50 µg/mL | IC50 (µg/mL), pseudovirus neutralization [42]: > 50 µg/mL | IC50 (µg/mL), pseudovirus neutralization [43]: > 50 µg/mL | IC50 (µg/mL), pseudovirus neutralization [44]: 0.408 µg/mL | IC50 (µg/mL), pseudovirus neutralization [45]: > 50 µg/mL | EC50 [3]: 0.1 µg/mL
